Data from patent publication US20210179728A1 (OSE IMMUNOTHERAPEUTICS, published 2021).

B1: HFLB (antibody, human IgG4 S228P, kappa, V domains shown)
VH: EVQLVQSGAEVKKPGESLRISCKASGYSFTSYWVHWVRQMPGKGLEWMGNIDPSDSDTHYSPSFQGHVTLSVDKSISTAYLQLSSLKASDTAMYYCVRGGTGTMAYFAYWGQGTLVTVSS
VL: DVVMTQSPLSLPVTLGQPASISCRSSQSLVHSYGNTYLYWFQQRPGQSPRLLIYRVSNRFSGVPDRFSGSGSGTDFTLKISRVEAEDVGVYYCFQGTHVPYTFGGGTKVEIKR
notes: humanized 18D5 variant
B2: Kwar23 (antibody, V domains shown)
VH: EVQLQQSGAELVKPGASVKLSCTASGFNIKDYYIHWVQQRTEQGLEWIGRIDPEDGETKYAPKFQDKATITADTSSNTAYLHLSSLTSEDTAVYYCARWGAYWGQGTLVTVSS
VL: QIVLTQSPAIMSASPGEKVTLTCSASSSVSSSYLYWYQQKPGSSPKLWIYSTSNLASGVPARFSGSGSGTSYSLTISSMEAEDAASYFCHQWSSYPRTFGAGTKLELK

Legend:
[1] = biological target: T1, recombinant hSIRPg-His (Sino Biologicals, reference 11828-H08H) (human, UniProt Q9P1W8 29-360); experiment: Blitz, SIRPg-His on Ni-NTA biosensor
T1 construct: also called human SIRPg-His; not shown: His tag
T1 sequence (Q9P1W8 29-360 limits assumed): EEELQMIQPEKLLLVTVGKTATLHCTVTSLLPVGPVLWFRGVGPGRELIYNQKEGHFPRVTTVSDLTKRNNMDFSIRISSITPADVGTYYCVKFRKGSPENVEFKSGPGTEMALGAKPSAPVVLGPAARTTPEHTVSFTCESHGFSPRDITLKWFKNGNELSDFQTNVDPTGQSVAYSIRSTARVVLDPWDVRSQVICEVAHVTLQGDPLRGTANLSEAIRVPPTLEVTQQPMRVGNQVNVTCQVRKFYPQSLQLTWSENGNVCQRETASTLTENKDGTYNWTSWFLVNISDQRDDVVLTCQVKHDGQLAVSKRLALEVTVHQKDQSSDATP
Procedure: (§1) Method: This method was performed with a Blitz (Forte Bio; USA; reference C22-2 No 61010-1). Recombinant hSIRPg-His (Sino Biologicals, Beijing, China; reference 11828-H08H) was immobilized at 10 μg/ml by histidine tail into a Ni-NTA biosensor (Forte Bio; USA; reference 18-0029) for 30 seconds. Then, an anti-SIRPa antibody was associated at 20 μg/mL for 120 seconds. The dissociation of anti-SIRPa antibody was made in kinetics buffer for 120 seconds. Analysis of data was made with the Blitz pro 1.2 software, which calculated association constant (ka) and dissociation constant (kd) and determined the affinity constant KD […].

[2] = biological target: T1, recombinant hSIRPg-His (Sino …); experiment: BLI (Blitz); SIRPg-His on Ni-NTA biosensor, antibody at 10 ug/ml or 20 ug/ml (Example 9) [B, table A]
Procedure: (§2) FIG. 8. (A) Affinity analysis by Blitz of anti-SIRP antibodies on human SIRPg recombinant protein. SIRPg-His recombinant protein was immobilized onto a NINTA biosensor and the indicated antibodies were added at 10 μg/ml. […] (B) Binding analysis by ELISA assay of anti-SIRP antibodies on SIRPg (human SIRPg-His coating and anti-human kappa detection).
as §1

[3] = biological target: T2, recombinant hSIRPa (Sino Biologicals, reference 11612-H08H) (human, UniProt P78324 31-370); experiment: SPR (Biacore); SIRPa-His immobilized on CM5 chip, antibody injected
T2 construct: also called SIRPa-His; human SIRPa-His; not shown: His tag (histidine tail)
T2 sequence (P78324 31-370 limits assumed): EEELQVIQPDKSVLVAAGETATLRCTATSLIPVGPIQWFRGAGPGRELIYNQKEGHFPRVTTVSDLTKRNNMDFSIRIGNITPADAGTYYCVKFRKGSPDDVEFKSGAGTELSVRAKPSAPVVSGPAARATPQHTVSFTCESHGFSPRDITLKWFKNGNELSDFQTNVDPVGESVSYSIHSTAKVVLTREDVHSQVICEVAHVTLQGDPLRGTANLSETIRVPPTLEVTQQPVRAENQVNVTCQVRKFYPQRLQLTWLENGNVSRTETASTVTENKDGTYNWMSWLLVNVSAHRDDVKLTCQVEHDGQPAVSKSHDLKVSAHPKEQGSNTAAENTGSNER
Summary of the method: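 His-tagged recombinant human SIRPa was coupled to a CM5 chip at 5 μg/ml (500 RU). Anti-SIRP antibodies were injected at several concentrations at 40 μl/min on a BIAcore 3000.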

[4] = biological target: T2, recombinant hSIRPa (Sino Biologicals, …); experiment: ELISA on immobilized hSIRPa-His, anti-human IgG detection, first experiment; first experiment
Procedure: Method: The binding activity of the anti-SIRPa antibodies was assessed by ELISA.

[5] = biological target: T3, recombinant hSIRPb-His (Antibodies-online, reference ABIN3077231) (human, UniProt Q5TFQ8 30-371); experiment: BLI (Blitz); SIRPb-His on Ni-NTA biosensor, antibody at 20 ug/ml [B, table A]
T3 construct: also called SIRPb-His (Blitz); not shown: His tag
T3 sequence (Q5TFQ8 30-371): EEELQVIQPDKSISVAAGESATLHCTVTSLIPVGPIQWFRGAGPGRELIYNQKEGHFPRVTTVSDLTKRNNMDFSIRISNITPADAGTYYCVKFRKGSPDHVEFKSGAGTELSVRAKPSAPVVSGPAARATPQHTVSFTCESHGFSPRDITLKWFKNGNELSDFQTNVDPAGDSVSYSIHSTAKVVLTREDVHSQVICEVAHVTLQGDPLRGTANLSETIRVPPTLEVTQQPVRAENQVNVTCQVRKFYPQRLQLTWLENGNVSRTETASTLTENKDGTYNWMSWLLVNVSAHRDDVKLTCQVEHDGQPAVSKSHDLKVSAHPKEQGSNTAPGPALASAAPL
Procedure: as §2, with “7.” for “8.”, “SIRPb” for “SIRPg”, “SIRPb-His” for “SIRPg-His”, “20” for “10”, “analysis” for “analysis by ELISA assay”, “antibodies” for “antibodies on SIRPg”
as §1, with “hSIRPb-His (Antibodies-online; USA;” for “hSIRPg-His (Sino Biologicals, Beijing, China;”, “ABIN3077231)” for “11828-H08H)”

[6] = biological target: T2, recombinant hSIRPa (Sino Biologicals, …); experiment: competition ELISA on immobilized SIRPa-His; competitor biotinylated CD47-Fc at 6 ug/ml, streptavidin-peroxidase [second experiment table]
Procedure: Method: For competitive ELISA assay, recombinant hSIRPa (Sino Biologicals, Beijing, China; reference 11612-H08H) was immobilized on plastic at 0.5 μg/ml in carbonate buffer (pH9.2).

[7] = biological target: T2, recombinant hSIRPa (Sino Biologicals, …); experiment: ELISA on immobilized hSIRPa-His, anti-human IgG detection

Row | Kd [1] | koff [2] | kon [2] | Kd [3] | koff [3] | kon [3] | EC50 [4] | Kd [5] | koff [5] | kon [5] | IC50 [6] | Kd [2] | EC50 [7] | Binder
1 | 104 nM | 0.0123 s⁻¹ | 119000 M⁻¹ s⁻¹ | 0.315 nM | 0.000249 s⁻¹ | 791000 M⁻¹ s⁻¹ | 4 ng/mL | 26 nM | 0.00174 s⁻¹ | 66900 M⁻¹ s⁻¹ | 183 ng/mL | – | – | B1
2 | – | 0.000765 s⁻¹ | 357000 M⁻¹ s⁻¹ | 0.367 nM | 8.95e-05 s⁻¹ | 244000 M⁻¹ s⁻¹ | – | 2.77 nM | 0.000794 s⁻¹ | 286000 M⁻¹ s⁻¹ | – | 2.14 nM | 3.3 ng/mL | B2
